Measured values from patent US20260166084A1 (published 2026).

Assays:
[1] = molecular target: complex formed between CRBN/DDB1 and iberdomide (UniProt Q96SW2 1-442; Q16531 2-1140); test: TR-FRET displacement; iberdomide
[2] = molecular target: complex formed between CRBN/DDB1 and lenalidomide (UniProt Q96SW2 1-442; Q16531 2-1140); test: TR-FRET displacement; lenalidomide
[3] = molecular target: complex formed between CRBN/DDB1 and pomalidomide (UniProt Q96SW2 1-442; Q16531 2-1140); test: TR-FRET displacement; pomalidomide
Sequence of complex formed between CRBN/DDB1 and pomalidomide (Q96SW2 whole entry, chain 1 of 2): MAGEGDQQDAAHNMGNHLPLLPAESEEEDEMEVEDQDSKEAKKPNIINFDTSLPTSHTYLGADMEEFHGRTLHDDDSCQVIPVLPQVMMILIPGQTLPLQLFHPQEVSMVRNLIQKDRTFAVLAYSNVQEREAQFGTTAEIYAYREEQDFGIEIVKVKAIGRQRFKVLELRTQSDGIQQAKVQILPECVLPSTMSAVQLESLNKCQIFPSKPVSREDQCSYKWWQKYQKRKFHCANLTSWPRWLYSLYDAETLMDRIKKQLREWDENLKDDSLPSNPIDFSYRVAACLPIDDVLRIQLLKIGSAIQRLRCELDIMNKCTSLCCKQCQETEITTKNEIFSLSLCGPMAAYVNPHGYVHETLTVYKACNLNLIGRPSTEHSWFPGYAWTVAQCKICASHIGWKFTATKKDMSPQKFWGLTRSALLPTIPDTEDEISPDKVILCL
Sequence of complex formed between CRBN/DDB1 and pomalidomide (Q16531 2-1140, chain 2 of 2): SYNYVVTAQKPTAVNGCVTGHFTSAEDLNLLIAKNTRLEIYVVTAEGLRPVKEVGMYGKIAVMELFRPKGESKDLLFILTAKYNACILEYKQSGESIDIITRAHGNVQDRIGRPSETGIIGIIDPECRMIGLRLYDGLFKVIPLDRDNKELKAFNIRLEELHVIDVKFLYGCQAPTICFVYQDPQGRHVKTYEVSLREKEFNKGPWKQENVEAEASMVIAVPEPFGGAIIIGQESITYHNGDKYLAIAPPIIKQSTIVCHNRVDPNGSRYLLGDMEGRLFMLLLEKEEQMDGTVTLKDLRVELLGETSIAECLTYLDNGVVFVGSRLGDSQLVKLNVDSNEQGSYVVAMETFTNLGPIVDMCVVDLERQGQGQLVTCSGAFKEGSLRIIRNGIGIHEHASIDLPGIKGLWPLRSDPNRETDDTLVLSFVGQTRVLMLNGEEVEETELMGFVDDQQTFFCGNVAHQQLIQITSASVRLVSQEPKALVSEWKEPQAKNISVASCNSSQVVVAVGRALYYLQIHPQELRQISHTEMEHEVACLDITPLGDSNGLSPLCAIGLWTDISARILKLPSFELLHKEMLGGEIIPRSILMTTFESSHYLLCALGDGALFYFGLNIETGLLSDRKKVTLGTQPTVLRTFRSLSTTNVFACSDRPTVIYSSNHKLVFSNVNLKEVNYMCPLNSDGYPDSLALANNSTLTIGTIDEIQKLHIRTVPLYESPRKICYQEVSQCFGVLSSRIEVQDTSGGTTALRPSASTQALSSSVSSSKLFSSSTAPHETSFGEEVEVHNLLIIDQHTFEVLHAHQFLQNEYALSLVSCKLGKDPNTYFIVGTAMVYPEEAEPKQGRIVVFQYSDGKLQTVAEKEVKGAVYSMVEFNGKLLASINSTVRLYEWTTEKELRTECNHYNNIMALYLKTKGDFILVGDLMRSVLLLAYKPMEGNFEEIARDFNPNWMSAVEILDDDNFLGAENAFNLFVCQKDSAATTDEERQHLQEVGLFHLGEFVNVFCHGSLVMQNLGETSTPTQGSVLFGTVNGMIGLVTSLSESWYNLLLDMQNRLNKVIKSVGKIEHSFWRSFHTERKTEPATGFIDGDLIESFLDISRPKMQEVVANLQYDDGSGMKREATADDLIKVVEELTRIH

Sequence of complex formed between CRBN/DDB1 and lenalidomide (Q96SW2 whole entry, chain 1 of 2): as the sequence (Q96SW2 whole entry, chain 1 of 2) above
Sequence of complex formed between CRBN/DDB1 and lenalidomide (Q16531 2-1140, chain 2 of 2): as the sequence (Q16531 2-1140, chain 2 of 2) above
Sequence of complex formed between CRBN/DDB1 and iberdomide (Q96SW2 whole entry, chain 1 of 2): as the sequence (Q96SW2 whole entry, chain 1 of 2) above
Sequence of complex formed between CRBN/DDB1 and iberdomide (Q16531 2-1140, chain 2 of 2): as the sequence (Q16531 2-1140, chain 2 of 2) above

Row | IC50 [1] | IC50 [2] | IC50 [3] | Binder
1 | 36.4 nM | 78.7 nM | 49.8 nM | iTAG1 (DCD23) (designed binder) PNVLMVHKRSHTGERPLQCEICGFTCRQKGNLLRHIKLHSGEKPFKCHLCNYACRRRDAL
2 | 556 nM | 860 nM | 834 nM | iTAG2 (DCD23mut) (designed binder) PNVLMVHNESHTGEIPLQCEICGFTCEQAGNLLNHIELHSGEIPFKCHLCNYACRRRDAL
